{"source": "paper PMC5587807", "key": {"[1]": {"test_system": "DNA polymerase beta (Pol β) WT (human)", "test": "EMSA", "details": "EMSA: 50 nM substrate, 50 mM Hepes pH 7.5, 37 mM KCl, 5 mM MgCl2, 0.5 mM EDTA, 100 ug/ml BSA, on ice 10 min, gel at 4 C, FA: 50 mM Hepes pH 7.5, 20 mM KCl, 2 mM"}, "[2]": {"test_system": "Pol β V303C, 5-iodoacetamidofluorescein labeled", "test": "fluorescence anisotropy", "details": "5'-phosphorylated tetrahydrofuran at 5' end of nick; biotin at 5' ends; EMSA: 50 nM substrate, 50 mM Hepes pH 7.5, 37 mM KCl, 5 mM MgCl2, 0.5 mM EDTA, 100 ug/ml BSA, on ice 10 min, gel at 4 C; FA: 50 mM Hepes pH 7.5, 20 mM KCl, 2 mM"}, "[3]": {"details": "5'-phosphorylated tetrahydrofuran at 5' end of nick"}}}
{"substance": "DNA-5'-P-THF-O (-35)", "values": [{"measurement": "Kd", "setting": "[1]; [3]", "result": 20, "unit": "nM"}]}
{"substance": "DNA-gI (-49)", "values": [{"measurement": "Kd", "setting": "[1]; 5'-phosphate and 3'-OH at gap", "result": 30, "unit": "nM"}]}
{"substance": "DNA-gO (-35)", "values": [{"measurement": "Kd", "setting": "[1]; 5'-phosphate and 3'-OH at gap", "result": 20, "unit": "nM"}]}
{"substance": "NCP-5'-P-THF-O (-35)", "values": [{"measurement": "Kd", "setting": "[1]; [3]", "result": 360, "unit": "nM"}]}
{"substance": "NCP-5'-P-THF-O (-35), 5'-biotin", "values": [{"measurement": "Kd", "setting": "[2]", "result": 280, "unit": "nM"}]}
{"substance": "NCP-gI (-49)", "values": [{"measurement": "Kd", "setting": "[1]; 5'-phosphate and 3'-OH at gap", "result": 170, "unit": "nM"}]}
{"substance": "NCP-gO (-35)", "values": [{"measurement": "Kd", "setting": "[1]; 5'-phosphate and 3'-OH at gap", "result": 460, "unit": "nM"}]}
{"substance": "UND NCP", "values": [{"measurement": "Kd", "setting": "[1]", "result": 740, "unit": "nM"}]}
{"substance": "UND-DNA", "values": [{"measurement": "Kd", "setting": "[1]", "result": 50, "unit": "nM"}]}
